Data as given in publication PMC6778621.

Tests used:
[1] = target: MET-ECD-Fc-His (WT) (human) (UniProt P08581); assay: SPR
[2] = target: MET-ECD-Fc-His V370D (human) (UniProt P08581); assay: SPR

For “SP domain of HGF (β-chain) (domain or fragment)”, the Kd [1] was 858 nM and the Kd [2] was 914 nM.
